Measurements reported in the DeepSol protein solubility set.

Experiment: soluble on expression in E. coli; label from the status in PepcDB or PDB records
For “MGSDKIHHHHHHMSDSEKEILKRIKDNPFISQRELAEAIGLSRPSVANIISGLIQKEYVMGKAYVLNEDYPIVCIGAANVDRKFYVHKDLVAETSNPVTSTRSIGGVARNIAENLGRLGETVAFLSASGQDSEWEMIKRLSTPFMNLDHVQQFENASTGSYTALISKEGDMTYGLADMEVFDYITPEFLIKRSHLLKKAKCIIVDLNLGKEALNFLCAYTTKHQIKLVITTVSSPKMKNMPDSLHAIDWIITNKDETETYLNLKIESTDDLKIAAKRWNDLGVKNVIVTNGVKELIYRSGEEEIIKSVMPSNSVKDVTGAGDSFCAAVVYSWLNGMSTEDILIAGMVNAKKTIETKYTVRQNLDQQQLYHDMEDYKNGKFTKVY”, the “soluble on expression in E. coli” value was “not soluble”.
In the case of “MAAEIKQGDHKFYVGDDENNPKAVITFKEVDNNEIDIDHTGVSDELGGQGLGKKLVNRVVEHARENNLKIIASCPFAKNVLEKDDHAQDVYLGLEHHHHHH”, the “soluble on expression in E. coli” value is reported as “soluble”.
For “MGSDKIHHHHHHMNVENQTPNVDHQEIAKFEAIASRWWDLEGEFKPLHRINPLRLGYISQRAEGLFGKKVLDVGCGGGILAESMAREGADVTGLDMGAEPLQVARLHALESGVTVDYVQETVEAHADAHSGLYDVVTCMEMLEHVPDPQSVVQACAKLVKPGGHVFFSTINRNAKAWMMAVIGAEYILKMVPRGTHDIKKFIRPAELMRWVDDTPLRERHITGLHYNLLTDRFKLGPNVDVNYMLHTSHDKQC”, the “soluble on expression in E. coli” value was “not soluble”.
For “MELRNTKLEQLFYIYHRNLKYRCPMQYLTKRGFNLQDLLSVGGGLAYLGEKQWLNLSLYNFNNQLVGFLSRKVGFEKKFLYLPINKPPSKSESFLGLKHLPTET”, the “soluble on expression in E. coli” value was “not soluble”.
In the case of “MGSDKIHHHHHHMCLVVAARWPSRLVSSVKEDKMKPSTSRLTLLAGILGLPMALCLPLAAQAQSNQWQVNGFIGQGYISADGSEFIVGESGDTFDVTEAALHLSWMPDEHFRVAGAARYRQWGNLDESGLSADYLFAEYKFILDQGYVGARGGLFKSEAGFYTSTRDVSFTRPGILLPQSVYSDYLRDALLHITGGELFGGHPLLDGSLEWHLTLGDAQTSDDLTRNVVGSEEFGRFDADGYWGADLEYQDDSLRLGLTYFDAKSRYQSHLGGPFADGSLRSKHWIVSAQYRINFLEFTGEYLHWDRYVGGVFVPPELGIYEVRGYGYYLDVRGYLPGDVEVFVRYDHQVQDEKDPDGDKLAERGLPGYFGYAHDWTIGTRWLPAKDWMVAAEYHKVRGAAWVTPILLPNPAVQDKDWSLFAIEISYKFQW”, the “soluble on expression in E. coli” value is reported as “not soluble”.
For “METPKLSVEAIEKGTVIDHIPAGRGLTILRQFKLLHYGNAVTVGFNLPSKTQGSKDIIKIKGVCLDDKAADRLALFAPEAVVNTIDNFKVVQKRHLNLPDEIAEVFRCPNTNCAGHGEPVKSRFYVKKHNGQTRLKCHYCEKTYSRDSVAEA”, the “soluble on expression in E. coli” value was “not soluble”.
In the case of “MGSSHHHHHHSSGLVPRGSHMAASTVAGELGLSITGLGVQYPPYSLGPDAIDILSKRYHPESPAMKKVLAINRYTGIDQRSSIGNPDHPLVNKPNPPTVKELHEVFMSDGVPLAVEASRKAMAEARLVPAQITHMVSTTCTDSANPGYDHYVAKELGLSDRLEKVLLHGIGCSGGLAALRTAANLCLGHTARGKPARILVLALEVSTTMVRSELESIDALQETRIGIALFSDCASAVILSNGIGEAPGKPAIYDLLGWENRVIPDSEHDLGFDVDPMGWKVVLSPRVPVLAKASLQPTYADLLSSLQDQLPSSYQKPADFDWAMHPGGATILSGAESAMGLTPEHMRASYDRYINHGNSSSATIFSVLNRLREKDMDALAPGGKVKEYVVGCAFGPGINVEMCMLKRRMNAPARTTTGLDTPPETDDSEGPGPGSSAGSDDGESIEGGEKEEKFINEALDNVELD”, the “soluble on expression in E. coli” value is reported as “soluble”.
In the case of “GPGSMSSFAPNVKICEDISHISSAARDIILAAIDARVDKSAPVVLALSGGSTPKRLYEELHEKDLTLLQQHAVQFILGDERLVATDDEQSNFSMATKALLRDVPISDVIAIEPSAALATSKDEKGGVDGAWAVAQDYEKKLRNRLPCTQVNGTDMSVPIVDIVLLGFGADGHTASIFPDSVAATDESHVVSVSFPSPTMNPKVWRVTLSKTVIQHAKHVVVLACGKDKNWVVHGVLAEAPTGPLPVSRFLRECRGSVTMLLDAGSGEGLSA”, the “soluble on expression in E. coli” value is reported as “soluble”.
With “RKRPLVLTADRGRGKSSALGIACAQLLQHKPLRILLTAPSINAVEPVYQHAQRLLTDAKQMKKDRLEVGYGYIQFIAPDELLSSLPECDLLLVDEAAAIPVPMLKQITEHYHRLVFSSTIHGYEGCGRGFTLKFIEWLQQQRPGMKTYHMQQPIRWSVDDKLEMWLYDAFILN” the “soluble on expression in E. coli” value was “not soluble”.
In the case of “MIDNVADGKIEADSKQAVNGGQLRDYTEQQMKIVLDDAKKYTDEQVKDRVSNGVNEAKSYTDMKFETLSYVVEDVRKAARQAVAMGLAVSNLRYYDIPGSLSLSFGTGIWRNQSAFAIGVGYTSEDGNIRSNLSITSADSHWDIGAGLRIKLN”, the “soluble on expression in E. coli” value is reported as “not soluble”.
For “MSVLDLVALSEGMTAGEAIAHSVRAAQIAEEHNYARFWVAEHHNSEGLASSATTLLMGHIAGHTSRIRVGSGGIMMPNHSALHVAEELGTLEAIYPGRIEAGLGRAPGTDPMTARELGRASSLVDDVLSTIVSLQNYLDTPEERPNIIAHPGINSRVPLFMLGSSLNGAAMAAKLDLPFAFASHFAPFQMGPAIASYRELAANPYVMAAANVLVCDTEEEAEFQISTLHQMFAGIVTNSRGKLAPPVRNLKDKLDPMIWKHIEDSLEMTFIGTAESVVLQLQEFADRYKLDEIITVTYSYDPEVRFRSIAALGT”, the “soluble on expression in E. coli” value was “not soluble”.
In the case of “MSLYKADMLGDAYEYLIKQFADDAGKKGGEFYTPKAVVQLVVELIDPRPGHSVYDPTCGSGGMLVESAHHVSGLPDGTLMGKPNVLLYGQEKNLGTWAIAKLNLYLHNMHASIERGDTLVEPKHLDGDYLKTFDRVIANPPFSAKSWWTPLELSNENEQENGKKVKAPNYKQVSDPYGRLVYGVPPRGYADLAFAQHMLASLKADGRMGVILPHGVLFRSGEEGKIREGLLFGTGAASGNQPGDVIEAIVGLPSALFYNTGIPACVLILNKQKPSALKDKVIIIDGSRDYLEGKAQNSLHAEDILRIVSTHKAAFEQQVEVENYCRLVTLDEIRSNDGNLNIVRYIDNGESDEVVNVAATLAHMATLAKEEAQIDQRLNRYLMELGLLETGEGHHHHHH”, the “soluble on expression in E. coli” value is reported as “not soluble”.
In the case of “MLGLVSLCALILILWRVVYRSVTRPLAEQTQALQRLLDGDIDSPFPETAGVRELDTIGRLMDAFRSSVHALNRHREQLAAQVKARTAELQELVIEHRQARAEAEKASQAKSAFLAAMSHEIRTPLYGILGTAQLLADNPALNAQRDDLRAITDSGESLLTILNDILDYSAIEAGGKNVSVSDEPFEPRPLLESTLQLMSGRVKGRPIRLATEIADDVPTALMGDPRRIRQVITNLLSNALRFTDEGHIILRSRTDGEQWLVEVEDSGCGIDPAKLAEIFQPFVQVSGKRGGTGLGLTISSRLAQAMGGELSATSTPEVGSCFCLRLPLRIATAPVPKTVNQAVRLDDLRLLLIEDNPLTQRITVEMLNTSGAQVVAVGNAAQAIEALQNSEPFAAALVDFDLPDIDGITLARQLAQQYPSLVLIGFSAHVIDETLRQRTSSLFRGIIPKPVPREVLGQLLAHYLQLQVNNDQPLDVSQLNEDAHLMGAEKIHEWLILFKQHALPLLDEIDIARASQDNEKIKRAAHQLKSSCSSLGMRSASQQCAQLEQQPLSAPLPHEEITRSVAALEAWLIRKT”, the “soluble on expression in E. coli” value is reported as “not soluble”.
With “MIAVIFEVWPAEGEKQHYLDIAAGLRAELETIDGFLSIERFQSISNPEKMLSLSFFRDEQAVRAWRNTLPHRTAQALGRSGVFSDYRLRIAHVIRDYGLLEREEAPADSRDAHPVEGSSLG” the “soluble on expression in E. coli” value was “not soluble”.
In the case of “MDVEKIALKHALINAIEHGGKANLKAVIGKVLGENPELRPRAKEIIPIINKVVEEVNSLARDEQLEKLKDIYPEYFEKKEEKKEKKGLPLLPKAEKGKVVTRFAPNPDGAFHLGNARAAILSYEYAKMYGGKFILRFDDTDPKVKRPEPIFYKMIIEDLEWLGIKPDEIVYASDRLEIYYKYAEELIKMGKAYVCTCPPEKFRELRDKGIPCPHRDEPVEVQLERWKKMLNGEYKEGEAVVRIKTDLNHPNPAVRDWPALRIIDNPNHPRTGNKYRVWPLYNFASAIDDHELGVTHIFRGQEHAENETRQRYIYEYFGWEYPVTIHHGRLSIEGVVLSKSKTRKGIEEGKYLGWDDPRLGTIRALRRRGILPEAIKELIIEVGLKKSDATISWENLAAINRKLVDPIANRYFFVADPIPMEVEGAPEFIAEIPLHPDHPERGVRRLKFTPERPVYVSKDDLNLLKPGNFVRLKDLFNVEILEVGDKIRARFYSFEYEIAKKNRWKMVHWVTEGRPCEVIIPEGDELVVRKGLLEKDAKVQVNEIVQFERFGFVRIDRIEGDKVIAIYAHK”, the “soluble on expression in E. coli” value is reported as “soluble”.
In the case of “MANWQCVKQCGACCNLDPAERPEIEDYLTPDELEIYFSMVGEGGWCVNFDHTTRECRIYSTRPRFCRVEPDIFQDMYGIESEELNDFAIECCRQQIEGVYGDRSLEMLRFDKAVGILEHHHHHH”, the “soluble on expression in E. coli” value is reported as “soluble”.
For “AMAISITCPPPMSVEHADIWVKSYSLYSRERYICNSGFKRKAGTSSLTECVLNKATNVAHWTTPSLKCIRDPALVHQRPAPPSTVTTAGVTPQPESLSPSGKEPAAS”, the “soluble on expression in E. coli” value was “soluble”.
In the case of “QVKPFSFVRDTDPVQLVNFLQSEHPQTIAVVLSYLDPPVAAQILGALPEELQTEVLKRIALLERTSPEVVKEIERNLEKKISGFVSRTFSKVGGIDTAAEIMNNLDRTTEKKIMDKLVQENPELADEIRRRMFVFEDILKLDDRSIQLVLREVDTRDLALALKGASDELKEKIFKNMSKRAAALLKDELEYMGPVRLKDVEEAQQKIINIIRRLEEAGEIVIARGGGEELIM”, the “soluble on expression in E. coli” value is reported as “soluble”.
For “MLFEGLPCLAVWCKNRLSAVLPVGGLNVSENLLEIETHPFDPVLPPKAAVMMMGTFPPKEDKRAMQFHYPNFQNDMWRVYGLVFFNDAAHFQRLSEKAFDAEKIKAFLHERGIASCPTVLKAVRQHGNASDKFLKVVETVDLAAVLAKIPECRHICTTGGKATEILLDIQGGGIKMPKTGETVPFPFAGRDLTLTRLPSTSRAYPLSLAKKAAAYRAFFEMAGLCEKQLLEHHHHHH”, the “soluble on expression in E. coli” value was “not soluble”.
With “TDNTKPNRMPVAPYWTSPEKMEKKLHAVPAAKTVKFKCPSSGTPQPTLRWLKNGKEFKPDHRIGGYKVRYATWSIIMDSVVPSDKGNYTCIVENEYGSINHTYQLDVVERSPHRPILQAGLPANKTVALGSNVEFMCKVYSDPQPHIQWLKHIEVNGSKIGPDNLPYVQILKTAGVNTTDKEMEVLHLRNVSFEDAGEYTCLAGNSIGLSHHSAWLTVLEALEER” the “soluble on expression in E. coli” value was “soluble”.
For “QESSGNKIHFINVQEGGSDAIILESNGHFAMVDTGEDYDFPDGSDSRYPWREGIETSYKHVLTDRVFRRLKELSVQKLDFILVTHTHSDHIGNVDELLSTYPVDRVYLKKYSDSRITNSERLWDNLYGYDKVLQTATETGVSVIQNITQGDAHFQFGDMDIQLYNYENETDSSGELKKIWDDNSNSLISVVKVNGKKIYLGGDLDNVHGAEDKYGPLIGKVDLMKFNHHHDTNKSNTKDFIKNLSPSLIVQTSDSLPWKNGVDSEYVNWLKERGIERINAASKDYDATVFDIRKDGFVNISTSYKPIPSFQAGWHKSAYGNWWYQAPDSTGEYAVGWNEIEGEWYYFNQTGILLQNQWKKWNNHWFYLTDSGASAKNWKKIDGIWYYFNKENQMEIGWVQDKEQWYYLDVDGSMKTGWLQYMGQWYYFAPSGEMKMGWVKDKETWYYMDSTGVMKTGEIEVAGQHYYLEDSGAMKQGWHKKANDWYFYKTDGSRAVGWIKDKDKWYFLKENGQLLVNGKTPEGYTVDSSGAWLVDVSIEKSATIKTT”, the “soluble on expression in E. coli” value was “soluble”.
With “MSLTPEIPPKNFTPHLPEDYDARISGVLPYYSSFHQETINLVKSLPSSPKIWMDTGCGTGSLINKAIEEFLDTKFLLLDPSESMLEQAKGKLSFYPDGKVEFLKASSTQEFSQELEEKPDVITAIQCHHYLSLEDRSRATRVCYNLLKEGGIYITFENIRPLTEEGVAVGKRYWGKFQSLHGRKEKEIQTHLERFDTEYFPITVEEHLKLLRDTGFRTVELFWYSYMQAGFYCIKEGHHHHHH” the “soluble on expression in E. coli” value was “soluble”.
